Details: pH 6

B1: human liver carboxylesterase 1: commercial human liver carboxylesterase 1 purchased from Abcam, SEQ ID NO: 12 (protein, listed as Homo sapiens)
chain: MWLRAFILATLSASAAWGHPSSPPVVDTVHGKVLGKFVSLEGFAQPVAIFLGIPFAKKPLGPLRFTPPQPAEPWSFVKNATSYPPMCTQDPKAGQLLSELFTNRKENIPLKLSEDCLYLNIYTPADLTKKNRLPVMVWIHGGGLMVGAASTYDGLALAAHENVVVVTIQYRLGIWGFFSTGDEHSRGNWGHLDQVAALRWVQDNIASFGGNPGSVTIFGESAGGESVSVLVLSPLAKNLFHRAISESGVALTSVLVKKGDVKPLAEQIAITAGCKTTTSAVMVHCLRQKTEEELLETTLKMKFLSLDLQGDPRESQPLLGTVIDGMLLLKTPEELQAERNFHTVPYMVGINKQEFGWLIPMQLMSYPLSEGQLDQKTAMSLLWKSYPLVCIAKELIPEATEKYLGGTDDTVKKKDLFLDLIADVMFGVPSVIVARNHRDAGAPTYMYEFQYRPSFSSDMKPKTVIGDHGDELFSVFGAPFLKEGASEEEIRLSKMVMKFWANFARNGNPNGEGLPHWPEYNQKEGYLQIGANTQAAQKLKDKEVAFWTNLFAKKAVEKPPQTEHIEL
PS80 degradation pattern compared with mAb-1: equivalent degradation pattern

— patent US20210268073A1, “METHODS OF REDUCING POLYSORBATE DEGRADATION IN DRUG FORMULATIONS” (Regeneron Pharmaceuticals, Inc., priority 2020, published 2021)
